# In PMC9482650, “Quantitative fragmentomics allow affinity mapping of interactomes” (Nature Communications, 2022):
# T1: CARD11, Q9BXL7
# T1 sequence (Q9BXL7 662-765, limits assumed, looked up): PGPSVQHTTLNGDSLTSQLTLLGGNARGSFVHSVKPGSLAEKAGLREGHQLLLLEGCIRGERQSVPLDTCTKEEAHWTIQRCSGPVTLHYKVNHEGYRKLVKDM
# T2: DFNB31_3, Q9P202
# T2 sequence (Q9P202 811-907, limits assumed, looked up): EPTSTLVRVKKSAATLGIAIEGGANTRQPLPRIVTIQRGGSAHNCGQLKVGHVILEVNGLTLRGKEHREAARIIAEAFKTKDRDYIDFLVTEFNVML
# T3: GRIP1_4, Q9Y3R0
# T3 sequence (Q9Y3R0 467-571, limits assumed, looked up): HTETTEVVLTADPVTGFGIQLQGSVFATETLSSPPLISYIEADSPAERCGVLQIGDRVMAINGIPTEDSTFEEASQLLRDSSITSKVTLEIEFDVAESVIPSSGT
# T4: GRIP1_7, Q9Y3R0
# T4 sequence (Q9Y3R0 999-1096, limits assumed, looked up): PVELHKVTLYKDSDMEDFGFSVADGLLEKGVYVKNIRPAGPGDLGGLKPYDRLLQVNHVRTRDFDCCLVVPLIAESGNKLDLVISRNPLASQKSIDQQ
# T5: HTRA3, P83110
# T5 sequence (P83110 354-453, limits assumed, looked up): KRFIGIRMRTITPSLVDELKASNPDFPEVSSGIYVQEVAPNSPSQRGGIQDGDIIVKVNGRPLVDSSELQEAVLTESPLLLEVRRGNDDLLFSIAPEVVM
# T6: LRRC7, Q96NW7
# T6 sequence (Q96NW7 1440-1537, limits assumed, looked up): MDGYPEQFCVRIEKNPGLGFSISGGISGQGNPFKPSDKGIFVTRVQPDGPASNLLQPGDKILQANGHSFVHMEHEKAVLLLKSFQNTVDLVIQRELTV
# T7: NHERF3_3, Q5T2W1
# T7 sequence (Q5T2W1 238-333, limits assumed, looked up): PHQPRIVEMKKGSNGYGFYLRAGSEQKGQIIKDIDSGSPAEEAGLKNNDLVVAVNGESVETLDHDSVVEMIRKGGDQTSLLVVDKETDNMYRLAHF
# T8: RHPN1, Q8TCX5
# T8 sequence (Q8TCX5 508-602, limits assumed, looked up): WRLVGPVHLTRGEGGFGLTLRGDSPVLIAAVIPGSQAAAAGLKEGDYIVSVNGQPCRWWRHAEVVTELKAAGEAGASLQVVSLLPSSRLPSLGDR
# T9: SNTA1, Q13424
# T9 sequence (Q13424 82-180, limits assumed, looked up): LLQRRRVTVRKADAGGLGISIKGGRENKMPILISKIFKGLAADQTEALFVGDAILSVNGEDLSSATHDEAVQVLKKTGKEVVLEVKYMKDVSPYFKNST
# T10: SNTB1, Q13884
# T10 sequence (Q13884 107-205, limits assumed, looked up): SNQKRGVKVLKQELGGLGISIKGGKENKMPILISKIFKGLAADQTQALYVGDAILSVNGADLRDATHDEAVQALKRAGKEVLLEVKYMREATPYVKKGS
# T11: TIAM2, Q8IVF5
# T11 sequence (Q8IVF5 885-986, limits assumed, looked up): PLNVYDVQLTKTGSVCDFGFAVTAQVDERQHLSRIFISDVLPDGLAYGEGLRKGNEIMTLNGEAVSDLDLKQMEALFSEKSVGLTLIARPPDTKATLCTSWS
# Target: T1, CARD11, Q9BXL7
# Test: holdup assay
# Set-up: key: below the threshold = too weak to quantify, mostly under pKd 3.1 to 4
# Conditions: plain residues with an end cap or a label only (N-terminal biotin on a linker: ado-ado)
row,Binder,pKd
1,"VKRNSKETVV [MARCHF3, Q86UD3]",below the threshold
2,"EDGESWEYQI [TRPV6, Q9H1D0]",below the threshold

# Target: T2, DFNB31_3, Q9P202
# Test: holdup assay
# Set-up: key: below the threshold = too weak to quantify, mostly under pKd 3.1 to 4
# Conditions: plain residues with an end cap or a label only (N-terminal biotin on a linker: ado-ado)
row,Binder,pKd
1,"VKRNSKETVV [MARCHF3, Q86UD3]",3.92
2,"EDGESWEYQI [TRPV6, Q9H1D0]",3.6

# Target: DLG1_3, Q12959
# Sequence (Q12959 457-571): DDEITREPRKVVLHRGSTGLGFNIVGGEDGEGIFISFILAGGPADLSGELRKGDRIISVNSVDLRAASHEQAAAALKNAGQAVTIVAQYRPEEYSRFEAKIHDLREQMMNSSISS
# Test: holdup assay
# Set-up: key: below the threshold = too weak to quantify, mostly under pKd 3.1 to 4
# Conditions: plain residues with an end cap or a label only (N-terminal biotin on a linker: ado-ado)
row,Binder,pKd
1,"VKRNSKETVV [MARCHF3, Q86UD3]",4.32
2,"EDGESWEYQI [TRPV6, Q9H1D0]",below the threshold

# Target: DLG2_3, Q15700
# Test: holdup assay
# Set-up: key: below the threshold = too weak to quantify, mostly under pKd 3.1 to 4
# Conditions: plain residues with an end cap or a label only (N-terminal biotin on a linker: ado-ado)
row,Binder,pKd
1,"VKRNSKETVV [MARCHF3, Q86UD3]",4.91
2,"EDGESWEYQI [TRPV6, Q9H1D0]",3.48

# Target: FRMPD2_3, Q68DX3
# Sequence (Q68DX3 1073-1166): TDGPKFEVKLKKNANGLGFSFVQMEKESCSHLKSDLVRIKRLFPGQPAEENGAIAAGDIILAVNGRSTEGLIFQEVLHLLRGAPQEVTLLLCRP
# Test: holdup assay
# Set-up: key: below the threshold = too weak to quantify, mostly under pKd 3.1 to 4
# Conditions: plain residues with an end cap or a label only (N-terminal biotin on a linker: ado-ado)
row,Binder,pKd
1,"VKRNSKETVV [MARCHF3, Q86UD3]",below the threshold
2,"EDGESWEYQI [TRPV6, Q9H1D0]",below the threshold

# Target: GOPC, Q9HD26
# Test: holdup assay
# Set-up: key: below the threshold = too weak to quantify, mostly under pKd 3.1 to 4
# Conditions: plain residues with an end cap or a label only (N-terminal biotin on a linker: ado-ado)
row,Binder,pKd
1,"VKRNSKETVV [MARCHF3, Q86UD3]",below the threshold
2,"EDGESWEYQI [TRPV6, Q9H1D0]",below the threshold

# Target: GORASP1, Q9BQQ3
# Sequence (Q9BQQ3 1-208): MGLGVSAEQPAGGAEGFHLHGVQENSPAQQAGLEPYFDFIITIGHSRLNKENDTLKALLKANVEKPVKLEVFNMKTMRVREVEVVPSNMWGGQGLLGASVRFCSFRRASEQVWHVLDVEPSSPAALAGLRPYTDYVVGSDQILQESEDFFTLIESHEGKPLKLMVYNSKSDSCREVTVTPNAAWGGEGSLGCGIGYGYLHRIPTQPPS
# Test: holdup assay
# Set-up: key: below the threshold = too weak to quantify, mostly under pKd 3.1 to 4
# Conditions: plain residues with an end cap or a label only (N-terminal biotin on a linker: ado-ado)
row,Binder,pKd
1,"VKRNSKETVV [MARCHF3, Q86UD3]",4.09
2,"EDGESWEYQI [TRPV6, Q9H1D0]",4.63

# Target: GRASP, Q7Z6J2
# Sequence (Q7Z6J2 96-193): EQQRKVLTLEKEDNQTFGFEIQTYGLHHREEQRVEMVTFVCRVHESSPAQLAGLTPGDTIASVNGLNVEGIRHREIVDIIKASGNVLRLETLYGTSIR
# Test: holdup assay
# Set-up: key: below the threshold = too weak to quantify, mostly under pKd 3.1 to 4
# Conditions: plain residues with an end cap or a label only (N-terminal biotin on a linker: ado-ado)
row,Binder,pKd
1,"VKRNSKETVV [MARCHF3, Q86UD3]",below the threshold
2,"EDGESWEYQI [TRPV6, Q9H1D0]",below the threshold

# Target: T3, GRIP1_4, Q9Y3R0
# Test: holdup assay
# Set-up: key: below the threshold = too weak to quantify, mostly under pKd 3.1 to 4
# Conditions: plain residues with an end cap or a label only (N-terminal biotin on a linker: ado-ado)
row,Binder,pKd
1,"VKRNSKETVV [MARCHF3, Q86UD3]",below the threshold
2,"EDGESWEYQI [TRPV6, Q9H1D0]",below the threshold

# Target: T4, GRIP1_7, Q9Y3R0
# Test: holdup assay
# Set-up: key: below the threshold = too weak to quantify, mostly under pKd 3.1 to 4
# Conditions: plain residues with an end cap or a label only (N-terminal biotin on a linker: ado-ado)
row,Binder,pKd
1,"VKRNSKETVV [MARCHF3, Q86UD3]",below the threshold
2,"EDGESWEYQI [TRPV6, Q9H1D0]",below the threshold

# Target: GRIP2_4, Q9C0E4
# Sequence (Q9C0E4 446-548): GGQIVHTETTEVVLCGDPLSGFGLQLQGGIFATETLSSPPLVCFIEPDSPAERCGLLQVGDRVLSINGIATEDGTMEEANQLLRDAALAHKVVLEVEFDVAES
# Test: holdup assay
# Set-up: key: below the threshold = too weak to quantify, mostly under pKd 3.1 to 4
# Conditions: plain residues with an end cap or a label only (N-terminal biotin on a linker: ado-ado)
row,Binder,pKd
1,"VKRNSKETVV [MARCHF3, Q86UD3]",below the threshold
2,"EDGESWEYQI [TRPV6, Q9H1D0]",below the threshold

# Target: GRIP2_6, Q9C0E4
# Sequence (Q9C0E4 648-740): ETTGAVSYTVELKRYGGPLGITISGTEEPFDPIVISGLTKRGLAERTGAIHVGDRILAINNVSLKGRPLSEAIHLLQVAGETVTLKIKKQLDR
# Test: holdup assay
# Set-up: key: below the threshold = too weak to quantify, mostly under pKd 3.1 to 4
# Conditions: plain residues with an end cap or a label only (N-terminal biotin on a linker: ado-ado)
row,Binder,pKd
1,"VKRNSKETVV [MARCHF3, Q86UD3]",below the threshold
2,"EDGESWEYQI [TRPV6, Q9H1D0]",3.8

# Target: T5, HTRA3, P83110
# Test: holdup assay
# Set-up: key: below the threshold = too weak to quantify, mostly under pKd 3.1 to 4
# Conditions: plain residues with an end cap or a label only (N-terminal biotin on a linker: ado-ado)
row,Binder,pKd
1,"VKRNSKETVV [MARCHF3, Q86UD3]",below the threshold
2,"EDGESWEYQI [TRPV6, Q9H1D0]",below the threshold

# Target: IL16_3, Q14005
# Sequence (Q14005 1107-1207): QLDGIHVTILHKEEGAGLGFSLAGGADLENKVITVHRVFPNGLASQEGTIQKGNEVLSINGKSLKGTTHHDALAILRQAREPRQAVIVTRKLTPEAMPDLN
# Test: holdup assay
# Set-up: key: below the threshold = too weak to quantify, mostly under pKd 3.1 to 4
# Conditions: plain residues with an end cap or a label only (N-terminal biotin on a linker: ado-ado)
row,Binder,pKd
1,"VKRNSKETVV [MARCHF3, Q86UD3]",below the threshold
2,"EDGESWEYQI [TRPV6, Q9H1D0]",below the threshold

# Target: Inadl_10, Q8NI35
# Sequence (Q8NI35 1673-1763): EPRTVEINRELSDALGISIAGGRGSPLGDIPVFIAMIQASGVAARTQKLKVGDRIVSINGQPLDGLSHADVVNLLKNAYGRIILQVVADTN
# Test: holdup assay
# Set-up: key: below the threshold = too weak to quantify, mostly under pKd 3.1 to 4
# Conditions: plain residues with an end cap or a label only (N-terminal biotin on a linker: ado-ado)
row,Binder,pKd
1,"VKRNSKETVV [MARCHF3, Q86UD3]",below the threshold
2,"EDGESWEYQI [TRPV6, Q9H1D0]",below the threshold

# Target: Inadl_2, Q8NI35
# Sequence (Q8NI35 238-335): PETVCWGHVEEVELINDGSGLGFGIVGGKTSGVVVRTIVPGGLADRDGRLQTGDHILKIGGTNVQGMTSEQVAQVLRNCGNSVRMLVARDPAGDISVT
# Test: holdup assay
# Set-up: key: below the threshold = too weak to quantify, mostly under pKd 3.1 to 4
# Conditions: plain residues with an end cap or a label only (N-terminal biotin on a linker: ado-ado)
row,Binder,pKd
1,"VKRNSKETVV [MARCHF3, Q86UD3]",below the threshold
2,"EDGESWEYQI [TRPV6, Q9H1D0]",3.97

# Target: Inadl_6, Q8NI35
# Sequence (Q8NI35 1058-1167): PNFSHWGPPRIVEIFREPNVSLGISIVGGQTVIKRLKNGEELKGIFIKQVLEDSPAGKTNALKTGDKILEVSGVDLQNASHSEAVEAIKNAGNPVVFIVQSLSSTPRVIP
# Test: holdup assay
# Set-up: key: below the threshold = too weak to quantify, mostly under pKd 3.1 to 4
# Conditions: plain residues with an end cap or a label only (N-terminal biotin on a linker: ado-ado)
row,Binder,pKd
1,"VKRNSKETVV [MARCHF3, Q86UD3]",below the threshold
2,"EDGESWEYQI [TRPV6, Q9H1D0]",below the threshold

# Target: T6, LRRC7, Q96NW7
# Test: holdup assay
# Set-up: key: below the threshold = too weak to quantify, mostly under pKd 3.1 to 4
# Conditions: plain residues with an end cap or a label only (N-terminal biotin on a linker: ado-ado)
row,Binder,pKd
1,"VKRNSKETVV [MARCHF3, Q86UD3]",3.79
2,"EDGESWEYQI [TRPV6, Q9H1D0]",below the threshold

# Target: MAGI3_2, Q5TCQ9
# Sequence (Q5TCQ9 398-503): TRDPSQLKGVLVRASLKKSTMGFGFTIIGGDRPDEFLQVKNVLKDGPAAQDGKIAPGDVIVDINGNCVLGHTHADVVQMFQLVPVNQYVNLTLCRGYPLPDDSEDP
# Test: holdup assay
# Set-up: key: below the threshold = too weak to quantify, mostly under pKd 3.1 to 4
# Conditions: plain residues with an end cap or a label only (N-terminal biotin on a linker: ado-ado)
row,Binder,pKd
1,"VKRNSKETVV [MARCHF3, Q86UD3]",5.72
2,"EDGESWEYQI [TRPV6, Q9H1D0]",below the threshold

# Target: T7, NHERF3_3, Q5T2W1
# Test: holdup assay
# Set-up: key: below the threshold = too weak to quantify, mostly under pKd 3.1 to 4
# Conditions: plain residues with an end cap or a label only (N-terminal biotin on a linker: ado-ado)
row,Binder,pKd
1,"VKRNSKETVV [MARCHF3, Q86UD3]",below the threshold
2,"EDGESWEYQI [TRPV6, Q9H1D0]",below the threshold

# Target: T8, RHPN1, Q8TCX5
# Test: holdup assay
# Set-up: key: below the threshold = too weak to quantify, mostly under pKd 3.1 to 4
# Conditions: plain residues with an end cap or a label only (N-terminal biotin on a linker: ado-ado)
row,Binder,pKd
1,"VKRNSKETVV [MARCHF3, Q86UD3]",4.07
2,"EDGESWEYQI [TRPV6, Q9H1D0]",below the threshold

# Target: SCRIB_1, Q14160
# Sequence (Q14160 718-814): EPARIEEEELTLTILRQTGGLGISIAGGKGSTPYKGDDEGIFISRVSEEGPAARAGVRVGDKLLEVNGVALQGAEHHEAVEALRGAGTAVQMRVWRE
# Test: holdup assay
# Set-up: key: below the threshold = too weak to quantify, mostly under pKd 3.1 to 4
# Conditions: plain residues with an end cap or a label only (N-terminal biotin on a linker: ado-ado)
row,Binder,pKd
1,"VKRNSKETVV [MARCHF3, Q86UD3]",4.55
2,"EDGESWEYQI [TRPV6, Q9H1D0]",below the threshold

# Target: T9, SNTA1, Q13424
# Test: holdup assay
# Set-up: key: below the threshold = too weak to quantify, mostly under pKd 3.1 to 4
# Conditions: plain residues with an end cap or a label only (N-terminal biotin on a linker: ado-ado)
row,Binder,pKd
1,"VKRNSKETVV [MARCHF3, Q86UD3]",5.37
2,"EDGESWEYQI [TRPV6, Q9H1D0]",below the threshold

# Target: T10, SNTB1, Q13884
# Test: holdup assay
# Set-up: key: below the threshold = too weak to quantify, mostly under pKd 3.1 to 4
# Conditions: plain residues with an end cap or a label only (N-terminal biotin on a linker: ado-ado)
row,Binder,pKd
1,"VKRNSKETVV [MARCHF3, Q86UD3]",5.19
2,"EDGESWEYQI [TRPV6, Q9H1D0]",below the threshold

# Target: SNX27, Q96L92
# Test: holdup assay
# Set-up: key: below the threshold = too weak to quantify, mostly under pKd 3.1 to 4
# Conditions: plain residues with an end cap or a label only (N-terminal biotin on a linker: ado-ado)
row,Binder,pKd
1,"VKRNSKETVV [MARCHF3, Q86UD3]",5.28
2,"EDGESWEYQI [TRPV6, Q9H1D0]",below the threshold

# Target: T11, TIAM2, Q8IVF5
# Test: holdup assay
# Set-up: key: below the threshold = too weak to quantify, mostly under pKd 3.1 to 4
# Conditions: plain residues with an end cap or a label only (N-terminal biotin on a linker: ado-ado)
row,Binder,pKd
1,"VKRNSKETVV [MARCHF3, Q86UD3]",3.73
2,"EDGESWEYQI [TRPV6, Q9H1D0]",3.95
